Target: rabbit skeletal muscle actin, polymerised (F-actin) (rabbit) (UniProt P68135)
Assay: co-sedimentation

human espin 3A with the USH1M variant p.790_795delRRDLLR, N-terminally 6xHis-tagged (natural protein), sequence (B1AK53 whole entry, stated change not applied): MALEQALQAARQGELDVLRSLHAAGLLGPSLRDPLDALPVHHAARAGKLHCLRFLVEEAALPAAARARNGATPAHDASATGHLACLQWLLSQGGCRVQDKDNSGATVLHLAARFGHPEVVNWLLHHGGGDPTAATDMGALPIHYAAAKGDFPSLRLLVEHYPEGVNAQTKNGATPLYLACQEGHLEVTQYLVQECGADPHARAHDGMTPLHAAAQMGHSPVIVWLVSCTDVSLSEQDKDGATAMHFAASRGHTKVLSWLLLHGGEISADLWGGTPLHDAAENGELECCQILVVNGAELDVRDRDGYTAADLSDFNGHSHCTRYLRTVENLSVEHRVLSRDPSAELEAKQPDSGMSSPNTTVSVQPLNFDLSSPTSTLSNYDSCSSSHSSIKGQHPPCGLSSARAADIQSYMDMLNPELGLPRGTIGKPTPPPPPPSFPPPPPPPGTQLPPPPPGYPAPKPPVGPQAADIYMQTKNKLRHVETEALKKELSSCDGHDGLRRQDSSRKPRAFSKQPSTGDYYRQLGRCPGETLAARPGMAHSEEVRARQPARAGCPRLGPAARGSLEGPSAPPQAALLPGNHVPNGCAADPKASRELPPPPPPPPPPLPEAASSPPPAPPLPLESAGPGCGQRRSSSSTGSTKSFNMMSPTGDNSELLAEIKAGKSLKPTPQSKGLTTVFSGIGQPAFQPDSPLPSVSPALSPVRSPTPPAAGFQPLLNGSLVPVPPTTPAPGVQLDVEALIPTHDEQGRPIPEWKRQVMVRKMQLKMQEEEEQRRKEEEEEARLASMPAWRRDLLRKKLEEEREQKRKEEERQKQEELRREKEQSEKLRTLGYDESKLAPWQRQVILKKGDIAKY

percent of espin cosedimented with F-actin [%] | Substance
15 | human espin 3A with the USH1M variant p.790_795delRRDLLR, N-terminally 6xHis-tagged (natural protein)
45 | human espin 3A, wild type, N-terminally 6xHis-tagged (natural protein)

Reference: publication PMC6232856
